Laboratory results: patent publication US20060251646A1 (CELLACT PHARMA, published 2006)

Key:
[1] = molecular target: T1, peptide 6 (TIRC7 derived peptide DLPDASVNGWSSDE); test: method not stated
T1 construct: Fragment of TIRC7, used coated on ELISA plates at 100 ng peptide/well; also called Peptid6
T1 peptide: DLPDASVNGWSSDE

[2] = molecular target: human T-cell immune response cDNA 7 (TIRC7) protein (human, UniProt Q13488 1-830); test: cell-based or functional assay
Chain of human T-cell immune response cDNA 7 (TIRC7) protein (Q13488 whole entry): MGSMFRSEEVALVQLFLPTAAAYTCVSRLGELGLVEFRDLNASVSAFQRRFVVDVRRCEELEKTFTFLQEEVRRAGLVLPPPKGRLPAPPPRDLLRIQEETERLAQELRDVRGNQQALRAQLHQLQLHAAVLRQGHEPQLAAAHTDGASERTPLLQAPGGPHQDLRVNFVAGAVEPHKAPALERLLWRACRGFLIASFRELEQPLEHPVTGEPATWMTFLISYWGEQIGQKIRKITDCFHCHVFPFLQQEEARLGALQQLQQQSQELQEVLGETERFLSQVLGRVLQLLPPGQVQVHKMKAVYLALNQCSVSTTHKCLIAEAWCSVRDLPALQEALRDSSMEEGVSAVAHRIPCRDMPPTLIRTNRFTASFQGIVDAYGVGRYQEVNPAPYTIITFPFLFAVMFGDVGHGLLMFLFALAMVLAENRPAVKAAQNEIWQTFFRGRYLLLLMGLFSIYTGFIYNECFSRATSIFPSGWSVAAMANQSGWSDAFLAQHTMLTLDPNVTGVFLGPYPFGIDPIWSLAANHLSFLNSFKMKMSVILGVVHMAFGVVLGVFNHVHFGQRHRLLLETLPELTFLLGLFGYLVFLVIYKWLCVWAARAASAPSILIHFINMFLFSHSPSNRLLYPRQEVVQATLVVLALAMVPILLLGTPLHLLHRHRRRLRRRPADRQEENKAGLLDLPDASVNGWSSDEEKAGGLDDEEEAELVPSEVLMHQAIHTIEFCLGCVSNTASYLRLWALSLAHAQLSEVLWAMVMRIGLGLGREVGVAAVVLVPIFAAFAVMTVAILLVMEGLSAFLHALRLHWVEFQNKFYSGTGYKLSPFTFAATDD

Row | Kd [1] [nM] | Inhibition of cytokine secretion (IFNγ) calculated relative to the isotype control at the same concentration, PHA-stimulated human PBMC, 10 µg/ml murine Neliximab [2] [%] | Inhibition of cytokine secretion (IFNγ) calculated relative to the isotype control at the same concentration, PHA-stimulated human PBMC, 50 µg/ml murine Neliximab [2] [%] | Inhibition of cytokine secretion (IFNγ) calculated relative to the isotype control at the same concentration, PHA-stimulated human PBMC, 100 µg/ml murine Neliximab [2] [%] | Inhibition of cytokine secretion (IFNγ) calculated relative to the isotype control at the same concentration, PHA-stimulated human PBMC, 200 µg/ml murine Neliximab [2] [%] | Binder
1 | 1 | 78 | 39 | 20 | 3 | murine Neliximab (murine anti-human TIRC7 monoclonal antibody, clone #17) (antibody, V domains shown, also called murine anti-human TIRC7 mAb; murine mAb) VH: EVQLQQSGPELVKPGASVKMSCKASGYTFTTYVMHWVKQKPGQGLEWIGYINPYNDGTNYNEKFKGKATLTSDKSSSTAYMELSTLTSEDSAVYYCAEFITKTVGGSNWYLDVWGAGTTVTVSS VL: QIVLTQSPAIMSASPGEKVTMTCSASSSISYIHWFQQKPGTSPKRWIYDTSKLPSGVPARFSGSGSGTSYSLTISSMEAEDAATYYCHQRSSYTWTFGGGTKLEIKR
2 | 1 |  |  |  |  | Neliximab (chimeric murine/human anti-human TIRC7 monoclonal antibody) (antibody, V domains shown, also called chimeric Neliximab; chimeric anti-human TIRC7 mAb) VH: EVQLQQSGPELVKPGASVKMSCKASGYTFTTYVMHWVKQKPGQGLEWIGYINPYNDGTNYNEKFKGKATLTSDKSSSTAYMELSTLTSEDSAVYYCAEFITKTVGGSNWYLDVWGAGTTVTVSS VL: QIVLTQSPAIMSASPGEKVTMTCSASSSISYIHWFQQKPGTSPKRWIYDTSKLPSGVPARFSGSGSGTSYSLTISSMEAEDAATYYCHQRSSYTWTFGGGTKLEIK
